According to publication PMC6684660, “ABCG1 contributes to suberin formation in Arabidopsis thaliana roots” (Scientific Reports, 2019):

Substrate: Nc1ncnc2c1ncn2[C@@H]1O[C@H](COP(=O)(O)OP(=O)(O)OP(=O)(O)O)[C@@H](O)[C@H]1O
Test: malachite green ATPase assay
Assay type: biochemical, Arabidopsis thaliana
Settings: ATP 0-8 mM, 10 mM MgCl2, 25 °C
Excerpt: malachite green ATPase assay on AtABCG1

[1] = Fos-Choline-14, EQ/HA background subtracted
[2] = Fos-Choline-14, hydrolysis-deficient mutant used as background control

Protein	Km [1]	Vmax [1]	Km [2]	Vmax [2]
AtABCG1 (Arabidopsis thaliana) (protein, full-length half-size transporter, N-terminal tag (CBP, His detected) kept, expressed in Pichia pastoris X33, purified in Fos-Choline-14, 86 kDa with tag, homodimer) MARIVAANDDDSMELNTISSIHDSTLGQLLKNVSDVRKMAIGDETPVHESLNQDYNDGYMRTVPFVLSFDNLTYNVSVRPKLDFRNLFPRRRTEDPEIAQTARPKTKTLLNNISGETRDGEIMAVLGASGSGKSTLIDALANRIAKGSLKGTVKLNGETLQSRMLKVISAYVMQDDLLFPMLTVEETLMFAAEFRLPRSLPKSKKKLRVQALIDQLGIRNAAKTIIGDEGHRGISGGERRRVSIGIDIIHDPILLFLDEPTSGLDSTSAFMVVKVLKRIAQSGSIVIMSIHQPSHRVLGLLDRLIFLSRGHTVYSGSPASLPRFFTEFGSPIPENENRTEFALDLIRELEGSAGGTRGLIEFNKKWQEMKKQSNRQPPLTPPSSPYPNLTLKEAIAASISRGKLVSGGESVAHGGATTNTTTLAVPAFANPMWIEIKTLSKRSMLNSRRQPELFGIRIASVVITGFILATVFWRLDNSPKGVQERLGFFAFAMSTMFYTCADALPVFLQERYIFMRETAYNAYRRSSYVLSHAIVSFPSLIFLSVAFAATTYWAVGLDGGLTGLLFYCLIILASFWSGSSFVTFLSGVVPSVMLGYTIVVAILAYFLLFSGFFINRNRIPDYWIWFHYMSLVKYPYEAVLQNEFSDATKCFVRGVQIFDNTPLGELPEVMKLKLLGTVSKSLGVTISSTTCLTTGSDILRQQGVVQLSKWNCLFITVAFGFFFRILFYFTLLLGSKNKRR	1800 ± 100 µM	0.0188 µmol/min/mg	–	–
AtABCG1 (Arabidopsis thaliana; E259Q/H291A) (protein, full-length half-size transporter, N-terminal tag (CBP, His detected) kept, expressed in Pichia pastoris X33, purified in Fos-Choline-14, 86 kDa with tag, homodimer) MARIVAANDDDSMELNTISSIHDSTLGQLLKNVSDVRKMAIGDETPVHESLNQDYNDGYMRTVPFVLSFDNLTYNVSVRPKLDFRNLFPRRRTEDPEIAQTARPKTKTLLNNISGETRDGEIMAVLGASGSGKSTLIDALANRIAKGSLKGTVKLNGETLQSRMLKVISAYVMQDDLLFPMLTVEETLMFAAEFRLPRSLPKSKKKLRVQALIDQLGIRNAAKTIIGDEGHRGISGGERRRVSIGIDIIHDPILLFLDQPTSGLDSTSAFMVVKVLKRIAQSGSIVIMSIAQPSHRVLGLLDRLIFLSRGHTVYSGSPASLPRFFTEFGSPIPENENRTEFALDLIRELEGSAGGTRGLIEFNKKWQEMKKQSNRQPPLTPPSSPYPNLTLKEAIAASISRGKLVSGGESVAHGGATTNTTTLAVPAFANPMWIEIKTLSKRSMLNSRRQPELFGIRIASVVITGFILATVFWRLDNSPKGVQERLGFFAFAMSTMFYTCADALPVFLQERYIFMRETAYNAYRRSSYVLSHAIVSFPSLIFLSVAFAATTYWAVGLDGGLTGLLFYCLIILASFWSGSSFVTFLSGVVPSVMLGYTIVVAILAYFLLFSGFFINRNRIPDYWIWFHYMSLVKYPYEAVLQNEFSDATKCFVRGVQIFDNTPLGELPEVMKLKLLGTVSKSLGVTISSTTCLTTGSDILRQQGVVQLSKWNCLFITVAFGFFFRILFYFTLLLGSKNKRR	–	–	700 ± 400 µM	0.0017 µmol/min/mg
